Experimental data: patent US20220242939A1 (BIOARCTIC, published 2022)
Non-standard residues stand in square brackets, D forms with d. No end group written: not given here. Ahx = NCCCCCC(=O)O

T1: L198 N-terminal neo-epitope peptide LAGQPL-Acp-C (SEQ ID NO:52) conjugated to BSA (human, not fully specified (residue 8); printed as LAGQPL-Acp-C; also: C-terminal Cys conjugated to BSA carrier)
T1 construct: BSA carrier; also called L198-BSA peptide
T1 peptide: LAGQPL[Ahx]C

T2: negative control peptide AATVGSLAGQPLQER-Acp-C (SEQ ID NO:53) conjugated to BSA (human, not fully specified (residue 17); printed as AATVGSLAGQPLQER-Acp-C; also: C-terminal Cys conjugated to BSA carrier)
T2 construct: BSA carrier; also called 192-206 BSA-conjugated peptide
T2 peptide: AATVGSLAGQPLQER[Ahx]C


What was measured:
[1] = molecular target: T3, recombinant full-length ApoE4 (aa 1-299; SEQ ID NO:45; Abcam cat. no. ab50243) (human, UniProt P02649 19-317); assay: direct ELISA, second protocol; proteins coated at 0.1 uM, BSA peptides at 1 ug/ml; antibody in 3-fold dilutions from 3000 ng/ml; blank reduced OD 450 nm
T3 construct: Bought protein; also called recombinant ApoE4 full-length protein
Method: The screening was performed according to standard ELISA protocols. Briefly, 1 μg/ml solutions of BSA-conjugated neo-epitope peptides, recombinant C-terminal ApoE fragment, negative control peptide and full-length ApoE were prepared by dilution in PBS. 50 μl/well were added to an ELISA half-area 96 well microtiter plate, the plate was sealed with adhesive sealer and incubated over night at 4° C. After discarding the solution, the plates were blocked with 150 μl/well of protein-free blocking solution (Pierce) for 1 h at room temperature with shake (900 rpm). The plates were washed four times with washing buffer containing 0.28 mM NaH₂PO₄, 2.5 mM Na₂HPO₄, 150 mM NaCl, 0.1% TWEEN®-20 and 0.0075% Kathon CG. […] An anti-ApoE C-terminal antibody was used as a reference antibody (ApoE E-8 mouse monoclonal, cat. no. sc-393302; Santa Cruz Biotechnology). 50 μl/well were added into the ELISA plates and incubated for 2 h at room temperature with shake (900 rpm). The plates were washed four times as described previously. […] After another wash (as described previously), 50 μl/well of K-Blue® aqueous substrate (Neogen) were added, and the reaction was stopped after 5-15 min with 50 μl/well of 0.5 M […]. The optical density at 450 nm was read using an ELISA reader (Tecan). The optical density was plotted against the antibody concentration to generate concentration-response curves (FIG. 16).
These were added in the same molarity (0.1 μM) to provide an equal number of molecules available for binding by the antibodies (BSA-coupled peptides were coated at 1 μg/ml as before).

[2] = molecular target: T4, recombinant C-terminal ApoE fragment G200-HIS (ApoE-G200-H299-10xHIS) (human, UniProt P02649 218-317); assay: BLI (Octet RED384), G200-HIS captured on anti-HIS biosensor, antibody as analyte, 1:2 bivalent analyte fit
T4 construct: also called G200-HIS fragment
Method: Selectivity evaluation and KD determination of recombinant antibodies by bio-layer interferometry: Binding interactions between the N-terminal neo-epitope peptide G200 (SEQ ID NO:50) conjugated to BSA (ligand) and the recombinant antibodies produced in Example 11 (analyte) were evaluated using an Octet RED384 instrument (ForteBio). All analyzed proteins were diluted in 1×Kinetics Buffer (ForteBio).
To analyze the antibody-target interaction and to determine the binding affinity of the recombinant antibodies for recombinant C-terminal ApoE fragment G200-HIS (SEQ ID NO:48), anti-HIS capture biosensors (HIS1K) were used. In the first step (loading step), HIS-tagged recombinant C-terminal ApoE fragment was captured onto the surface of the biosensor. Next, a concentration gradient of pure antibodies was prepared ranging from 150 nM to 2.5 nM in 2-fold serial dilutions. Subsequently, the HIS1K biosensors with ligand were dipped in wells containing diluted antibodies, and the association phase was monitored for 600 s. For monitoring the dissociation phase, the HIS1K biosensors with ligand were moved to a well containing 1× Kinetics Buffer and the dissociation was monitored for 1000 s. For evaluation of the kinetic experiments, the Octet Data Analysis software was used. All values collected from interaction analysis were blank subtracted, and a 1:2 binding kinetics global fit model (bivalent analyte) was used for the evaluation.
Selectivity evaluation and KD determination of recombinant antibodies by bio-layer interferometry: Binding interactions between the recombinant G200 C-terminal ApoE fragment (ligand) and recombinant antibodies (analyte) were evaluated by using an Octet RED384 instrument (ForteBio).

[3] = molecular target: T1, L198 N-terminal neo-epitope peptide …; assay: direct ELISA, target coated at 1 ug/ml, antibody in 3-fold dilutions from 500 ng/ml, OD 450 nm
Method: (§1) Selectivity evaluation of recombinant antibodies by direct ELISA: The direct ELISA described below was used to evaluate the binding selectivity of the recombinant antibodies produced in Example 11.
(§2) The screening was performed according to standard ELISA protocols. Briefly, 1 μg/ml solutions of BSA-conjugated neo-epitope peptides, recombinant C-terminal ApoE fragment, negative control peptide and full-length ApoE were prepared by dilution in PBS. 50 μl/well were added to an ELISA half-area 96 well microtiter plate, the plate was sealed with adhesive sealer and incubated over night at 4° C. After discarding the solution, the plates were blocked with 150 μl/well of protein-free blocking solution (Pierce) for 1 h at room temperature with shake (900 rpm). The plates were washed four times with washing buffer containing 0.28 mM NaH₂PO₄, 2.5 mM Na₂HPO₄, 150 mM NaCl, 0.1% TWEEN®-20 and 0.0075% Kathon CG. Generated recombinant antibodies of interest were serially diluted 3-fold with a starting dilution at 0.5 μg/ml (mixed 1:1 with dilution buffer: PBS with 0.1% BSA and 0.05% TWEEN®-20). An anti-ApoE C-terminal antibody was used as a reference antibody (ApoE E-8 mouse monoclonal, cat. no. sc-393302; Santa Cruz Biotechnology). 50 μl/well were added into the ELISA plates and incubated for 2 h at room temperature with shake (900 rpm). The plates were washed four times as described previously. […] After another wash (as described previously), 50 μl/well of K-Blue® aqueous substrate (Neogen) were added, and the reaction was stopped after 5-15 min with 50 μl/well of 0.5 M […]. The optical density at 450 nm was read using an ELISA reader (Tecan).

[4] = molecular target: T2, negative control peptide …; assay: as above
Method: as §1, §2

T3 sequence (P02649 19-317 C130R limits assumed): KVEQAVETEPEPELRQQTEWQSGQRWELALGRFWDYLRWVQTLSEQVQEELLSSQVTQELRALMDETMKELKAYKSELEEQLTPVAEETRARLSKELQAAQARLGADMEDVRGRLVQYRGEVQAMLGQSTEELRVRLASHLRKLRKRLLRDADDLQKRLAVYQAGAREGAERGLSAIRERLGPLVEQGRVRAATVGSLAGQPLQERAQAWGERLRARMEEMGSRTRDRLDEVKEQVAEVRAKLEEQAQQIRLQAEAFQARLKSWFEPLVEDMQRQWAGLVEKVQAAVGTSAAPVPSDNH
T4 sequence (P02649 other isoform, or with tags, fused parts or gaps limits assumed): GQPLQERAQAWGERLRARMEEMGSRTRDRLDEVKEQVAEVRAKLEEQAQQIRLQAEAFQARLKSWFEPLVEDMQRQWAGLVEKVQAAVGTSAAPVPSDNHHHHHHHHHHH

binding result [1] | Kd [2] [nM] | binding result [3] | binding result [4] | Binder
no binding (tested: 3000 ng/ml) | 5.2 | no binding (tested: 500 ng/ml) | no binding (tested: 500 ng/ml) | 23D5, recombinant IgG2c antibody (antibody, V domains shown) VH: EVQLVESGGGLVKPGGSLKLSCSASGFTFSRYAMSWVRQSPEKRLEWVAEINSGGSYSFYSDTVTGRFTISRDNAKNTLFLEMSSLRSEDTAIYYCARQLSGTDYYGTDYWGQGTSVTVSS VL: DVLMTQTPLSLPVSHGDQASISCRSSQSLLYSNGNTYLEWYLQKPGQSPKLLIYKVSNRFSGVPDRFSGSGSGTDFTLKISRVEAEDLGVYYCFQGSHVPYTFGGGTKLEIK
no binding (tested: 3000 ng/ml) | 9.7 | no binding (tested: 500 ng/ml) | no binding (tested: 500 ng/ml) | 28F2, recombinant IgG2c antibody (antibody, V domains shown) VH: QIQLVQSGPDLKKPGETVKISCKASGYTFTNYAMHWMKQAPGKALKWMGWINTYTGEPTFADDFKGRFAFSLETSASTAYLQINSLKNEDMATYFCAREGYYDRSHYFDYWGQGTTLTVSS VL: DVLMTQTPLSLPVSLGDQASISCRSSLSLVHGDGNTYLEWYLQKPGQSPKLLIYKVSNRFSGVPDRFSGSGSGTDFTLKISRVEAEDLGVYYCLQGSHIPFTFGSGTKLEIK
no binding (tested: 3000 ng/ml) | 0.9 | no binding (tested: 500 ng/ml) | no binding (tested: 500 ng/ml) | 4E6, recombinant IgG2c antibody (antibody, V domains shown, also called recombinant anti-G200 antibody 4E6) VH: EVQLVESGGDLVKPGGSLKLSCAASGFTFSSYAMSWVRQSPEKRLEWVAEISGSGSRDHYTDSVTGRFTVSRDNAKNTLYLEMSSLRSEDTAIYYCARQLTGTDYYGTDYWGQGTSVTVSS VL: DVLMTQIPLSLPVSLGDQASISCRSSQSIVYSNGNTYLEWYLQRPGQSPKLLIYKVSNRFSGVPDRFSGSGSGTDFTLKISRVEAEDLGVYYCFQGSHLPYTFGGGTKLEIK
no binding (tested: 3000 ng/ml) | 1.9 | no binding (tested: 500 ng/ml) | no binding (tested: 500 ng/ml) | 7C7, recombinant IgG2c antibody (antibody, V domains shown) VH: EVQLVESGGGLVKPGGSLRLSCAASGFTFSSFAMSWVRQSPERRLEWVAEISRGGGYAFYSDTVTGRFTISRDNARNTLFLEMGSLRSEDTAMYYCSRQLTGTDYYAMDYWGQGTSVTVSS VL: DVLLTQTPLSLFVSLGDQASISCRSSQSIVYTNGNTYLEWYLQKPGQSPKLLIYKVSNRFSGVPDRFSGSGSGTDFTLKISRVEAEDLGVYYCFQGSQVPYTFGGGTKLELK
no binding (tested: 3000 ng/ml) | 0.8 | no binding (tested: 500 ng/ml) | no binding (tested: 500 ng/ml) | 17G4, recombinant IgG2c antibody (antibody, V domains shown) VH: EVQLVESGGGLVKPGGSLKLSCSASGFTFSRYAMSWVRQSPEKRLEWVAEINSGGSYSFYSDTVTGRFTISRDNAKNTLFLEMSSLRSEDTAIYYCARQLTGTDYYGTDYWGQGTSVTVSS VL: DVLMTQTPLSLPVSHGDQASISCRSSQSLLYSNGNTYLEWYLQKPGQSPKLLIYKVSNRFSGVPDRFSGSGSGTDFTLKISRVEAEDLGVYYCFQGSHVPYTFGGGTKLEIK
no binding (tested: 3000 ng/ml) | 0.8 | no binding (tested: 500 ng/ml) | no binding (tested: 500 ng/ml) | 7B10, recombinant IgG2c antibody (antibody, V domains shown, also called 7610) VH: AVQLVESGGGLVKPGRSLKLSCAASGFTFSSYAMSWVRQFPDKRLDWVAEISSGGGSTNYLDTVTGRFTISRDNAKNTLYLEMNSLRSEDTAMYYCARQLVGTDYYGTDYWGQGTSVTVSS VL: DVLMTQTPLSLPVSLGDQASISCRSSQNIVYSNGNTYLEWYLQKPGQSPKLLIYKVSNRFSGVPDRFSGSGSGTDFTLKISRVEAEDLGVYYCFQGSHVPYTFGGGTKLEIK
